# Laboratory results taken from patent US8435961B2, “Methods and compositions for increasing the activity of inhibitory RNA” (Massachusetts Institute of Technology, priority 2009, dated 2013).
# System: RNAi activity in 293T cells
# Assay: Modified pGL4.72[hRlucCP] vector luciferase assay of RNAi activity
# Type: cell-based
# Conditions: overexpression from pEGFP-C1, 10 nM vector-target RNAi, 48 hours, vs EGFP- and G3BP-overexpressing cells (FIG. 30)
# Excerpt: Assays for measuring RNAi activity in a cell are available in the art. For example, psiCHECK™-1, psiCHECK™-2, and pGL4.72[hRlucCP]™ vector assay systems provide methods for the measurement of RNAi activity in a cell. In these assays systems, luciferase is used a primary reporter gene and a target sequence (i.e., the target of one or more RNAi molecules) is cloned a multiple cloning region located downstream of the luciferase translational stop codon. Initiation of the RNAi process towards the target gene results in the cleavage and subsequent degradation of the fusion mRNA encoded by the vectors (i.e., upon treatment of the transfected cell with a vector-target RNAi molecule). Measurement of decreased luciferase activity in the transfected cells following treatment with the vector-target RNAi indicates the activity of RNAi in the cell. […]
# Additional experiments were performed to determine the effect of PARP13 knockdown on miRNA activity. […] In a second set of experiments, the ability of the vector-target RNAi to reduce the expression of luciferase was measured in 293T cells transfected with pGL4.72[hRlucCP]™ vector, 20 nM vector-target RNAi, and 20 nM of negative RNAi control for PARP13 siRNA (siNeg; AllStars Negative Control siRNA; Qiagen Catalog No. 1027280) or PARP13 siRNA (siPARP13; SEQ ID NO: 40) following treatment with 0 or 30 nM pateamine A for 2 hours. […]
molecule,measurement,value
PARP13: PARP13 overexpressed from a pEGFP-C1 plasmid (protein) ADPEVCCFITKILCAHGGRMALDALLQEIALSEPQLCEVLQVAGPDRFVVLETGGEAGITRSVVATTRARVCRRKYCQRPCDNLHLCKLNLLGRCNYSQSERNLCKYSHEVLSEENFKVLKNHELSGLNKEELAVLLLQSDPFFMPEICKSYKGEGRQQICNQQPPCSRLHICDHFTRGNCRFPNCLRSHNLMDRKVLAIMREHGLNPDVVQNIQDICNSKHMQKNPPGPRAPSSHRRNMAYRARSKSRDRFFQGSQEFLASASASAERSCTPSPDQISHRASLEDAPVDDLTRKFTYLGSQDRARPPSGSSKATDLGGTSQAGTSQRFLENGSQEDLLHGNPGSTYLASNSTSAPNWKSLTSWTNDQGARRKTVFSPTLPAARSSLGSLQTPEAVTTRKGTGLLSSDYRIINGKSGTQDIQPGPLFNNNADGVATDITSTRSLNYKSTSSGHREISSPRIQDAGPASRDVQATGRIADDADPRVALVNDSLSDVTSTTSSRVDDHDSEEICLDHLCKGCPLNGSCSKVHFHLPYRWQMLIGKTWTDFEHMETIEKGYCNPGIHLCSVGSYTINFRVMSCDSFPIRRLSTPSSVTKPANSVFTTKWIWYWKNESGTWIQYGEEKDKRKNSNVDSSYLESLYQSCPRGVVPFQAGSRNYELSFQGMIQTNIASKTQKDVIRRPTFVPQWYVQQMKRGPDHQPAKTSSVSLTATFRPQEDFCFLSSKKYKLSEIHHLHPEYVRVSEHFKASMKNFKIEKIKKIENSELLDKFTWKKSQMKEEGKLLFYATSRAYVESICSNNFDSFLHETHENKYGKGIYFAKDAIYSHKNCPYDAKNVVMFVAQVLVGKFTEGNITYTSPPPQFDSCVDTRSNPSVFVIFQKDQVYPQYVIEYTEDKACVIS,decrease in the level of miRNA-mediated repression compared to control cells,3 fold
